Source: publication PMC13681993 (2026)

Legend:
[1] = molecular target: T1, EGFR C-tail Y1016/Y1138 980-1210 (Homo sapiens, UniProt P00533); assay: BLI
T1 chain: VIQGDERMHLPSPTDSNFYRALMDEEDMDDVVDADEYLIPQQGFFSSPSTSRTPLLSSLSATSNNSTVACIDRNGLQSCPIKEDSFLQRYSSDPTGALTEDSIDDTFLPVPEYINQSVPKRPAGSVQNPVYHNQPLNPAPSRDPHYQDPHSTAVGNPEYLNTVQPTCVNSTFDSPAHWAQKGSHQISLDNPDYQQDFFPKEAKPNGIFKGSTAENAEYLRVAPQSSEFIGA

[2] = molecular target: T2, EGFR C-tail Y1016/Y1092 980-1210 (Homo sapiens, UniProt P00533); assay: BLI
T2 chain: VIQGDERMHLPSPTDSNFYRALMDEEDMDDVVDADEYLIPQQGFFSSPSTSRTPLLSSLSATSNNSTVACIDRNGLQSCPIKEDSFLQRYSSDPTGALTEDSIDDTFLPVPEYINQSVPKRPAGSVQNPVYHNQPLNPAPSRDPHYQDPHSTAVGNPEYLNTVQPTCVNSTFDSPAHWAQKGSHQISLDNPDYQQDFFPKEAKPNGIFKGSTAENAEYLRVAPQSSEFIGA

B1: PLCγ1 tandem SH2 N-SH2-C-SH2 (protein)
chain: WFHGKLGAGRDGRHIAERLLTEYCIETGAPDGSFLVRESETFVGDYTLSFWRNGKVQHCRIHSRQDAGTPKFFLTDNLVFDSLYDLITHYQQVPLRCNEFEMRLSEPVPQTNAHESKEWYHASLTRAQAEHMLMRVPRDGAFLVRKRNEPNSYAISFRAEGKIKHCRVQQEGQTVMLGNSEFDSLVDLISYYEKHPLYRKMKLRYPI
[1]
  Kd: 0.0634 µM
[2]
  Kd: 0.429 µM
